In the supplement of paper PMC7877785:
± gives the uncertainty stated by the source.

Assay: self-splicing fitness, log relative to wild type (ln ratio); higher = more splicing; Tetrahymena group I intron in knt gene, E. coli kanamycin selection, DiMSum; sequences stand for … in CUCUCU…GGAGGGAAAAGUUAUCAGGCAUGCACCUGGUAGCUAGUCUUUAAACCAAUAGAUUGCAUCGGUUUAAAAGGCAAGACCGUCAAAUUGCGGGAAAGGGGUCAACAGCCGUUCAGUACCAAGUCUCAGGGGAAACUUUGAGAUGGCCUUGCAAAGGGUAUGGUAAUAAGCUGACGGACAUGGUCCUAACCACGCAGCCAAGUCCUAAGUCAACAGAUCUUCUGUUGAUAUGGAUGCAGUUCACAGACUAAAUGUCGGUCGGGGAAGAUGUAUUCUUCUCAUAAGAUAUAGUCGGACCUCUCCUUAAUGGGAGCUAGCGGAUGAAGUGAUGCAACACUGGAGCCGCUGGGAACUAAUUUGUAUGCGAAAGUAUAUUGAUUAGUUUUGGAGUACUCGUGGUCG
How it was run: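 Library with all eight P1ex-region intron nucleotides randomised, intron inside the knt kanamycin-resistance gene on pET-22b(+), in E. coli BL21(DE3). Cells grew overnight at 37°C or 30°C on LB agar with or without 25 μg/mL kanamycin (plus 100 μg/mL carbenicillin, 50 μM IPTG, 0.2% rhamnose), in six replicate transformations. Pooled colonies were amplicon-sequenced on Illumina HiSeq 2500. DiMSum fitness is the error-weighted combination of wild-type-normalised replicate fold changes, kanamycin versus none.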

Sequence	self-splicing fitness (ln) (30 °C)	self-splicing fitness (ln) (37 °C)
GGCAAGCAAUAUUACGUUGC	-3.67 ± 0.37	-2.42 ± 0.39
GGCAAGCAAUAUUACGUUUG	-3 ± 0.13	-2.83 ± 0.22
GGCCAGCAAUAUUACGAAAC	-0.973 ± 0.079	0.00581 ± 0.1
GGCCAGCAAUAUUACGACCC		-1.48 ± 0.44
GGCCAGCAAUAUUACGACGU	-0.821 ± 0.083	0.2 ± 0.12
GGCCAGCAAUAUUACGAUAG	-3.68 ± 0.46	-2.95 ± 0.23
GGCCAGCAAUAUUACGAUUC	-0.666 ± 0.067	-0.139 ± 0.099
GGCCAGCAAUAUUACGCACC	-2.17 ± 0.12	-0.636 ± 0.14
GGCCAGCAAUAUUACGCCCU	-1.37 ± 0.16	-0.726 ± 0.15
GGCCAGCAAUAUUACGCCGA	-1.54 ± 0.16	-1.18 ± 0.14
GGCCAGCAAUAUUACGCCGC	-4.33 ± 0.39	
GGCCAGCAAUAUUACGCGAA	-0.824 ± 0.12	-1.41 ± 0.14
GGCCAGCAAUAUUACGCGAU	-3.5 ± 0.14	-2.17 ± 0.14
GGCCAGCAAUAUUACGCGGA	-1.17 ± 0.12	-0.716 ± 0.1
GGCCAGCAAUAUUACGCUAC	-4.15 ± 0.3	-2.57 ± 0.23
GGCCAGCAAUAUUACGCUCC	-3.17 ± 0.24	-1.38 ± 0.24
GGCCAGCAAUAUUACGGGGG	-3.54 ± 0.18	-1.85 ± 0.17
GGCCAGCAAUAUUACGGGUG	-1.02 ± 0.049	-0.536 ± 0.065
GGCCAGCAAUAUUACGGUUC	-3.72 ± 0.17	-0.463 ± 0.12
GGCCAGCAAUAUUACGUACG	-1.8 ± 0.11	-1.1 ± 0.12
GGCCAGCAAUAUUACGUACU	-0.417 ± 0.08	-0.256 ± 0.093
GGCCAGCAAUAUUACGUAUC	-0.633 ± 0.069	-0.494 ± 0.081
GGCCAGCAAUAUUACGUGCC	-3 ± 0.15	-0.478 ± 0.24
GGCGAGCAAUAUUACGACGA	-3.06 ± 0.32	-1.32 ± 0.26
GGCGAGCAAUAUUACGACUA	-0.848 ± 0.12	-0.00409 ± 0.11
GGCGAGCAAUAUUACGAGUG	-1.67 ± 0.19	-1.47 ± 0.3
GGCGAGCAAUAUUACGAGUU	-2.42 ± 0.14	-1.19 ± 0.16

Sequence	self-splicing fitness (ln) (30 °C)	self-splicing fitness (ln) (37 °C)
GGCGAGCAAUAUUACGAUGC	-1.04 ± 0.16	-1.43 ± 0.26
GGCGAGCAAUAUUACGCCUU	-3.21 ± 0.3	-1.81 ± 0.26
GGCGAGCAAUAUUACGCGAG	-2.7 ± 0.24	-2.24 ± 0.32
GGCGAGCAAUAUUACGCGCG		-0.647 ± 0.18
GGCGAGCAAUAUUACGCGGU	-3.13 ± 0.21	-1.69 ± 0.22
GGCGAGCAAUAUUACGCGUC		-2.65 ± 0.39
GGCGAGCAAUAUUACGGCAG		-1.94 ± 0.36
GGCGAGCAAUAUUACGGUUG	-2.57 ± 0.14	-0.892 ± 0.16
GGCGAGCAAUAUUACGUAAA	-2.28 ± 0.16	-1.06 ± 0.15
GGCGAGCAAUAUUACGUAAU	-1.4 ± 0.13	-0.339 ± 0.14
GGCGAGCAAUAUUACGUACU	-0.65 ± 0.13	-0.094 ± 0.15
GGCGAGCAAUAUUACGUCGU	-3.86 ± 0.22	-2.3 ± 0.32
GGCGAGCAAUAUUACGUCUA	-1.86 ± 0.19	-0.451 ± 0.15
GGCGAGCAAUAUUACGUCUG	-4.26 ± 0.29	-2.53 ± 0.16
GGCGAGCAAUAUUACGUGAU	-2.26 ± 0.15	-1.08 ± 0.14
GGCGAGCAAUAUUACGUUGG	-3.75 ± 0.32	-2.92 ± 0.35
GGCGAGCAAUAUUACGUUUC	-2.07 ± 0.23	-1.99 ± 0.26
GGCUAGCAAUAUUACGAUAG		-2.41 ± 0.39
GGCUAGCAAUAUUACGAUUC	-0.162 ± 0.098	-0.0286 ± 0.13
GGCUAGCAAUAUUACGCAAA	-1.68 ± 0.18	-0.628 ± 0.16
GGCUAGCAAUAUUACGCAAU	-0.887 ± 0.14	-0.69 ± 0.16
GGCUAGCAAUAUUACGCAGC		-2.29 ± 0.39
GGCUAGCAAUAUUACGCAUC	0.346 ± 0.16	0.785 ± 0.17
GGCUAGCAAUAUUACGCCGA	-1.8 ± 0.28	-1.05 ± 0.25
GGCUAGCAAUAUUACGCGGG	-3.62 ± 0.25	-3.06 ± 0.27
GGCUAGCAAUAUUACGCUAC	-3.04 ± 0.48	-2.3 ± 0.34
GGCUAGCAAUAUUACGCUCA	-2.07 ± 0.33	-0.183 ± 0.25

Sequence	self-splicing fitness (ln) (30 °C)	self-splicing fitness (ln) (37 °C)
GGCUAGCAAUAUUACGUCUC	-0.325 ± 0.094	-0.0256 ± 0.11
GGCUAGCAAUAUUACGUGAA	-0.24 ± 0.086	-0.383 ± 0.086
GGCUAGCAAUAUUACGUGUU	-1.02 ± 0.058	0.41 ± 0.063
GGGAAGCAAUAUUACGAAGU	-2.43 ± 0.29	-1.83 ± 0.35
GGGAAGCAAUAUUACGAGAG	-3.24 ± 0.27	-2.46 ± 0.24
GGGAAGCAAUAUUACGAGGC	-3.08 ± 0.29	-1.4 ± 0.2
GGGAAGCAAUAUUACGAGUU	-2.86 ± 0.15	-1.02 ± 0.099
GGGAAGCAAUAUUACGAUGA	-0.977 ± 0.13	-0.771 ± 0.13
GGGAAGCAAUAUUACGCGCA	-0.0561 ± 0.11	-0.304 ± 0.13
GGGAAGCAAUAUUACGCGUA	-0.73 ± 0.14	-0.267 ± 0.14
GGGAAGCAAUAUUACGGACG	-0.846 ± 0.11	-0.443 ± 0.13
GGGAAGCAAUAUUACGGAGC	-1.91 ± 0.21	-1.3 ± 0.21
GGGAAGCAAUAUUACGGCCU	-3.14 ± 0.26	-1.35 ± 0.25
GGGAAGCAAUAUUACGGGCA	-1.9 ± 0.19	0.154 ± 0.21
GGGAAGCAAUAUUACGGUAG	-2.65 ± 0.2	-2.32 ± 0.24
GGGAAGCAAUAUUACGGUGU	-2.2 ± 0.1	-0.483 ± 0.13
GGGAAGCAAUAUUACGUAAC	-2.91 ± 0.26	-1.06 ± 0.18
GGGAAGCAAUAUUACGUAGA	-1.36 ± 0.15	-0.824 ± 0.19
GGGAAGCAAUAUUACGUAUU	-1.87 ± 0.13	-1.58 ± 0.15
GGGAAGCAAUAUUACGUCGG		-0.827 ± 0.18
GGGAAGCAAUAUUACGUGCC		-0.148 ± 0.38
GGGAAGCAAUAUUACGUUAU	-2.98 ± 0.26	-1.33 ± 0.18
GGGCAGCAAUAUUACGACAC	-0.731 ± 0.26	0.302 ± 0.27
GGGCAGCAAUAUUACGAGUC	-1.84 ± 0.21	-1.81 ± 0.28
GGGCAGCAAUAUUACGCAUC	-2.25 ± 0.41	-0.733 ± 0.2
